{"source": "patent US20210147504A1", "target": "rat ANP receptor (NPR-A) (rat) (UniProt P18910)", "sequence (P18910 29-1057)": "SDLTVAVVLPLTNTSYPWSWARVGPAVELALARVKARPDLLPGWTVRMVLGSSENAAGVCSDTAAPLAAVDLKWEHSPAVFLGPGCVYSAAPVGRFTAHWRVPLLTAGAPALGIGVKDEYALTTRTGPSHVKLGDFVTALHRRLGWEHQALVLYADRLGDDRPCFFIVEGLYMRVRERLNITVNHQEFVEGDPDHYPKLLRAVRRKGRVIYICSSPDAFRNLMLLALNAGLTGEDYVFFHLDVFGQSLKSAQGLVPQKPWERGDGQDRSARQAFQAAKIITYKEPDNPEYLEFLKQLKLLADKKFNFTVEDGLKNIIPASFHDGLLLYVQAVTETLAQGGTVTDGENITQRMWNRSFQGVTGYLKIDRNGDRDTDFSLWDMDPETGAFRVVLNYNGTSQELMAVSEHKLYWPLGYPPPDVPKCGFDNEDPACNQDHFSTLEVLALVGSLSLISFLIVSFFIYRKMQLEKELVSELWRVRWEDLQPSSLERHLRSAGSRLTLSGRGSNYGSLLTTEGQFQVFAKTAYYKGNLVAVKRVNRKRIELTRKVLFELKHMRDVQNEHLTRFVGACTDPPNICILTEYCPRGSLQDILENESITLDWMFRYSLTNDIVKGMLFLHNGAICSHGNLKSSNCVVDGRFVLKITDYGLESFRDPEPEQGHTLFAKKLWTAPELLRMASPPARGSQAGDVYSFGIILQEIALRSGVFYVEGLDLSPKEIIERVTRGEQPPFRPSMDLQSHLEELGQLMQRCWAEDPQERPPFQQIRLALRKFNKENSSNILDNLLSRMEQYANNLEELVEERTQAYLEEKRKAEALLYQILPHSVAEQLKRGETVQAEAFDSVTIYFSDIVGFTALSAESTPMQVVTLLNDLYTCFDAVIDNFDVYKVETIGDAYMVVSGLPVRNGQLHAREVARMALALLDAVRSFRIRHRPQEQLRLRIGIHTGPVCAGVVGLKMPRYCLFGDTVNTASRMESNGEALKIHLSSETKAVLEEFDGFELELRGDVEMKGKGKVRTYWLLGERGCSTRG", "assay": "cell-based or functional assay"}
{"substance": "BNP (Bachem, H-5968) (peptide)", "values": [{"measurement": "EC50, fluorescence signal of rat NPR-A cGMP reporter CHO cell line (GCaMP6/CNGA2)", "result": 2.9, "unit": "nM"}]}
